# Assay results reported in paper doi:10.1101/2025.02.12.637899, “UB-MBX-46 is a potent and selective antagonist of the human P2X7 receptor developed by structure-based drug design” (bioRxiv, 2025).
# Biological target: the molecule itself
# Assay: cryo-EM structure; purified receptor in 20 mM HEPES pH 7.0, 100 mM NaCl, 0.5 mM C12M (DDM); apo, or incubated with 900 uM ATP or with antagonist at 3-4x the molar concentration of the monomer; homotrimer
protein,measurement,value
"full-length wild-type mouse P2X7 receptor (receptor, UniProt Q9Z1M0 1-595, looked up, palmitoylation of residues on the C-cys anchor; limited glycosylation, acylation and palmitoylation modelled where density allowed, P2X7 receptor (P2X purinoceptor 7), mouse, full-length wild type, no mutations or truncations; UniProt Q9Z1M0; The construct carries a C-terminal GFP, a 3C protease site and a histidine tag; digested with HRV 3C protease before SEC; Homotrimer in the apo closed state structure; also called mP2X7R; mP2X7; source: HEK293 GNTI- cells, BacMam, purified (DDM/CHS, TALON, SEC); not shown: GFP, …) MPACCSWNDVLQYETNKVTRIQSTNYGTVKWVLHMIVFSYISFALVSDKLYQRKEPVISSVHTKVKGIAEVTENVTEGGVTKLGHSIFDTADYTFPLQGNSFFVMTNYVKSEGQVQTLCPEYPRRGAQCSSDRRCKKGWMDPQSKGIQTGRCVPYDKTRKTCEVSAWCPTEEEKEAPRPALLRSAENFTVLIKNNIHFPGHNYTTRNILPTMNGSCTFHKTWDPQCSIFRLGDIFQEAGENFTEVAVQGGIMGIEIYWDCNLDSWSHHCRPRYSFRRLDDKNTDESFVPGYNFRYAKYYKENNVEKRTLIKAFGIRFDILVFGTGGKFDIIQLVVYIGSTLSYFGLATVCIDLLINTYSSAFCRSGVYPYCKCCEPCTVNEYYYRKKCESIMEPKPTLKYVSFVDEPHIRMVDQQLLGKSLQVVKGQEVPRPQMDFSDLSRLSLSLHDSPLTPGQSEEIQLLHEEVAPKSGDSPSWCQCGNCLPSRLPEQRRALEELCCRRKPGRCITTSKLFHKLVLSRDTLQLLLLYQDPLLVLGEEATNSRLRHRAYRCYATWRFGSQDMADFAILPSCCRWRIRKEFPKTEGQYSGFKYPY",stoichiometry N,3
"full-length wild-type human P2X7 receptor (receptor, UniProt Q99572 1-595, looked up, palmitoylation of residues on the C-cys anchor; limited glycosylation, acylation and palmitoylation modelled where density allowed, P2X7 receptor (P2X purinoceptor 7), human, full-length wild type, no mutations or truncations; UniProt Q99572; The construct carries a C-terminal GFP, a 3C protease site and a histidine tag; the protein was digested with HRV 3C protease before SEC; also called hP2X7R; hP2X7; not shown: GFP, C-terminal, cleaved) MPACCSCSDVFQYETNKVTRIQSMNYGTIKWFFHVIIFSYVCFALVSDKLYQRKEPVISSVHTKVKGIAEVKEEIVENGVKKLVHSVFDTADYTFPLQGNSFFVMTNFLKTEGQEQRLCPEYPTRRTLCSSDRGCKKGWMDPQSKGIQTGRCVVYEGNQKTCEVSAWCPIEAVEEAPRPALLNSAENFTVLIKNNIDFPGHNYTTRNILPGLNITCTFHKTQNPQCPIFRLGDIFRETGDNFSDVAIQGGIMGIEIYWDCNLDRWFHHCRPKYSFRRLDDKTTNVSLYPGYNFRYAKYYKENNVEKRTLIKVFGIRFDILVFGTGGKFDIIQLVVYIGSTLSYFGLAAVFIDFLIDTYSSNCCRSHIYPWCKCCQPCVVNEYYYRKKCESIVEPKPTLKYVSFVDESHIRMVNQQLLGRSLQDVKGQEVPRPAMDFTDLSRLPLALHDTPPIPGQPEEIQLLRKEATPRSRDSPVWCQCGSCLPSQLPESHRCLEELCCRKKPGACITTSELFRKLVLSRHVLQFLLLYQEPLLALDVDSTNSRLRHCAYRCYATWRFGSQDMADFAILPSCCRWRIRKEFPKSEGQYSGFKSPY",stoichiometry N,3
